In patent US12085574B2, “Method and means for diagnosing and treating allergy” (BIOMEDICAL INTERNATIONAL R+D GMBH, priority 2014, dated 2024):

Tests used:
[1] = Iron-binding capacity of lipocalin allergens (quenching of autofluorescence); details: 2 μM allergen, 50UM siderophore (2,3, Dihydroxybenzoic Acid), iron III 0 to 50 μM; excitation/emission 280 and 340
Procedure: In this assay, 2 μM of allergen (in the example BLG) and 50UM of siderophores like 2,3, Dihydroxybenzoic Acid are incubated with increasing concentrations of iron III (Fe3+) ranging from 0 to 50 μM (x-axis in FIG. 5). Quenching of autofluorescence is measured at excitation and emission wavelengths of […] respectively in endpoint mode (y-axis in FIG. 5).

[2] = test system: CD3+ cells of PMA-activated PBMCs; experiment: CD4/CD8 expression and survival of PMA-activated PBMCs incubated with apo- or holo-lipocalin allergens (FACS); type: cell-based, human; details: PBMCs pre-activated 24 h with PMA 0.75 ng/ml; allergen 100 μg/ml; holo = with catechol and iron; gated for CD3, 10000 CD3 cells recorded
Procedure: Cells were then stained for CD3-APC, CD8-PE, CD4-PE-CY7, 7AAD and Annexin V-FITC, gated for CD3 and analyzed by a FACS Canto II. Data acquisition was stopped when 10000 CD3 cells were recorded.
Apo-allergens were incubated with equimolar concentration of iron (ammonium iron (III) citrate, Sigma) and three-fold molar concentration of catechol, since 3 catechols are necessary for hexadental binding of iron in the LCN2-pocket against deionized water. Recombinant Bet v1a (Biomay, Vienna, Austria) was used as purchased
Blood was mixed with equal volumes of PBS containing 2% FCS before applying onto 10 ml Ficoll-Paque PLUS (GE Healthcare, Uppsala, Sweden), centrifugation at 400 g for 30 min without brake and washing the cells twice with 0,89% sodium chloride solution. Cells were then diluted to a concentration of 1Mio cells/ml in RPMI medium containing 10% FCS. Throughout the study FCS from the same lot was always used.
To PBMCs (0.5 Mio/test) a final concentration of 0.75 ng/ml PMA, 100 μg/ml apo-allergen (BLG, Alt a 1 and Bet v 1) with or without 10 μM catechol (Sigma) and 10 μM iron was added. For control purposes also tested without allergen or PMA. PMA each substance was determined in pre-experiments and considered concentration was optimal when cells were slightly downregulating surface CD4+ expression (7). […]

PMA-activated PBMCs = experiment: Cytokine content (IL13, IFN-γ) of supernatants of PMA-activated PBMCs stimulated with apo-/holo-allergens (ELISA); type: cell-based, human; details: PMA-activated PBMCs incubated for 18-24h; allergen 100 μg/ml with or without 10 μM catechol and 10 μM iron
Procedure: To PBMCs (0.5 Mio/test) a final concentration of 0.75 ng/ml PMA, 100 μg/ml apo-allergen (BLG, Alt a 1 and Bet v 1) with or without 10 μM catechol (Sigma) and 10 μM iron was added. For control purposes also tested without allergen or PMA. PMA each substance was determined in pre-experiments and considered concentration was optimal when cells were slightly downregulating surface CD4+ expression (7). After 18-24h supernatants were collected and stored at −80° ° C. until further analysis.
LCN2 and the cytokine levels of IL13 and IFNγ were detected with commercially available kits according to the manufacturers' protocol. Sera were diluted 1:100 before determining LCN2-levels, whereas supernatants of 18-24h stimulation were used undiluted. Sensitivity of LCN2 assay is about 75 pg/ml and kits were purchased from R&D Systems (Minneapolis, MN, USA), whereas ELISAs for human IL13 and IFNγ were from ebioscience (Santa Clara, CA, USA), both assays having a reported sensitivity of 4 pg/ml.

Molecule	Autofluorescence of the cavity (iron-binding) [1]	CD4 expression and survival [2]	Th2-cytokines released upon stimulation (IL13 and IFN-γ analyzed) (PMA-activated PBMCs)
BLG: commercially available bovine beta-lactoglobulin, lipocalin allergen	quenched		
apoBetv1: recombinant Bet v 1a birch allergen, used as purchased, without siderophore-iron (protein, UniProt P15494 2-160, looked up) Major pollen allergen Bet v …: GVFNYETETTSVIPAARLFKAFILDGDNLFPKVAPQAISSVENIEGNGGPGTIKKISFPEGFPFKYVKDRVDEVDHTNFKYNYSVIEGGPIGDTLEKISNEIKIVATPDGGSILKISNKYHTKGDHEVKAEQVKASKEMGETLLRAVESYLLAHSDAYN		increase	released
holoBetv1: recombinant Bet v 1a incubated with equimolar iron and three-fold molar catechol (protein, UniProt P15494 2-160, looked up, iron and catechol complex, recombinant Bet v 1a incubated with equimolar iron and three-fold molar catechol) Major pollen allergen Bet v …: GVFNYETETTSVIPAARLFKAFILDGDNLFPKVAPQAISSVENIEGNGGPGTIKKISFPEGFPFKYVKDRVDEVDHTNFKYNYSVIEGGPIGDTLEKISNEIKIVATPDGGSILKISNKYHTKGDHEVKAEQVKASKEMGETLLRAVESYLLAHSDAYN		sharp contrast	not
apo-Alt a 1: recombinant Alternaria alternata allergen Alt a 1, dialyzed against DFO, iron-free (protein, UniProt P79085 19-157, looked up) Major allergen Alt a 1: APLESRQDTASCPVTTEGDYVWKISEFYGRKPEGTYYNSLGFNIKATNGGTLDFTCSAQADKLEDHKWYSCGENSFMDFSFDSDRSGLLLKQKVSDDITYVATATLPNYCRAGGNGPKDFVCQGVADAYITLVTLPKSS			released
holo-Alt a 1: recombinant Alt a 1 incubated with equimolar iron and three-fold molar catechol (protein, UniProt P79085 19-157, looked up, iron and catechol bound, recombinant Alt a 1 incubated with equimolar iron and three-fold molar catechol) Major allergen Alt a 1: APLESRQDTASCPVTTEGDYVWKISEFYGRKPEGTYYNSLGFNIKATNGGTLDFTCSAQADKLEDHKWYSCGENSFMDFSFDSDRSGLLLKQKVSDDITYVATATLPNYCRAGGNGPKDFVCQGVADAYITLVTLPKSS			not
